From patent US20230023093A1 (University of Pennsylvania, published 2023)

B1: HIV-1 Env Fab (VRC01 based Fab generated from pHIV-1 Env Fab) (Fab, V domains shown)
VH: QVQLVQSGGQMKKPGESMRISCRASGYEFIDCTLNWIRLAPGKRPEWMGWLKPRGGAVNYARPLQGRVTMTRDVYSDTAFLELRSLTVDDTAVYFCTRGKNCDYNWDFEHWGRGTPVIVSS
VL: QIVLTQSPGTLSLSPGETAIISCRTSQYGSLAWYQQRPGQAPRLVIYSGSTRAAGIPDRFSGSRWGPDYNLTISNLESGDFGVYYCQQYEFFGQGTKVQVDI
B2: CHIKV-Env-Fab (Fab, V domains shown)
VH: QVQLVQSGSELKKPGASVKVSCKASGYTLTRYAMTWVRQAPGQGLEWMGWINTYTGNPTYVQGFTGRFVFSLDTSVSTAFLHITSLKAEDTAVYFCAREGGARGFDYWGQGTLVTVSS
VL: QSVLTQPPSVSGAPGQRVTISCTGSSSNIGASHDVHWYQQLPGTAPTLLIYVNSNRPSGVPDRFSGSKSGTSASLAITGLQAEDEADYYCQSYDSNLSGSAVFGGGTKLTVLG

What was measured:
[1] = biological target: T1, HIV-1 Env of clade B strain SF162 on transfected 293T cells (HIV-1 clade B, SF162, UniProt P19550 32-847); assay: binding of day 6 mouse sera to Env expressed in transfected 293T cells (FIG. 12)
T1 construct: whole, on cells

[2] = biological target: HIV-1 Env of SF162S (clade B, Tier 1) on pseudotyped virus (HIV-1 clade B, SF162S); assay: cell-based or functional assay
[3] = biological target: HIV-1 Env of Bal26 (clade B, Tier 1) on pseudotyped virus (HIV-1 clade B, Bal26); assay: cell-based or functional assay
[4] = biological target: HIV-1 Env of the primary isolate Q23Env17 (pOpt-Env-A) (HIV-1 clade A, Q23Env17); assay: cell-based or functional assay
[5] = biological target: recombinant HIV-1 Env (subtype B; MN) protein (HIV-1 subtype B, MN, UniProt P05877 32-513); assay: binding ELISA, serial dilutions of day 14 mouse sera

Binder	binding result [1]	plateau percent neutralization (TZM-Bl luciferase assay, sera 1:50) [2] [%]	plateau percent neutralization (TZM-Bl luciferase assay, sera 1:50) [3] [%]	plateau percent neutralization (TZM-Bl luciferase assay, sera 1:50) [4] [%]	binding result [5]
B1	binds	~70	~62	~60	–
B2	–	–	–	–	no binding
